We go through 1 molecule from patent publication EP4480965A1, “TRANSFERRIN RECEPTOR-BINDING MOLECULES, CONJUGATES THEREOF AND THEIR USES TO PREVENT OR TREAT CNS DISEASES” (Vect-Horus, priority 2023, dated 2024).

The test system of this test is murine SOD1 mRNA. Description: CNS knock-down of SOD1 mRNA after systemic (SC or IV) administration (RT-qPCR). The test is classed as in vivo, C57Bl/6 mice. To be noted: SC QDx4 at 15 mg/kg (siRNA molar equivalent), one week after last dose. The protocol:
VHH-siSOD1m-5'VP conjugates or heterodimeric VHH-hFc-siSOD1m-5'VP conjugates were generated and compared for their potential to trigger BBB-crossing and functional delivery in CNS tissues following systemic administration. Wild-type C57Bl/6 mice (4-8 per group) were administered with either four daily SC doses (QDx4) of unconjugated siSOD1m-5'VP or the C5-siSOD1m-5'VP conjugate at 15 mg/kg (siRNA molar equivalent), or three IV doses of the C5-hFc-siSOD1m-5'VP conjugate every two days (Q2Dx3) at 1.5 mg/kg (siRNA molar equivalent), compared to PBS injected mice. […] RNA samples were analyzed and dosed using a Fragment Analyzer RNA kit in a Fragment Analyzer system (Agilent). Relative RNA expression levels were quantified by RT-qPCR using the TaqMan™ Fast Universal PCR Master Mix (2X) no AmpErase™ LTNG kit (Applied Biosystems) and commercially available TaqMan™ probes for the target murine SOD1 and reference RpL13 and PUM1 genes (Applied Biosystems). Expression data were analyzed using the […]Cq method normalized to the expression of the reference RpL13 gene, for brain regions, or RpL13 and PUM1 genes for total brain, spinal cord, liver, kidney (multiplex qPCR), based on raw quantification cycle (Cq) values (Bustin et al.). The results are expressed as means ± standard error of the mean (SEM) and are presented as mRNA levels relative to the control animals injected with PBS. […]
On the technique in general: In qPCR the cycle at which signal appears reflects the starting amount.

B1: C5-siSOD1m-5'VP: TfR-binding VHH-siRNA conjugate wherein VHH is C5 (conjugate)
VHH: EVQLVESGGGVVQPGGSLKLSCVASGTDFSINFIRWYRQAPGKQREFVAGFTATGNTNYADSMKGRFTISRDNTKNAVYLQIDSLKPEDTAVYYCYMLDKWGQGTQVTVSSAAAEQKLISEEDLNGAAHHHHHHGS
With B1, the “SOD1 mRNA KD in total brain and spinal cord” value was 30-40%.
